Data published in PMC8206089, “Split NanoLuc technology allows quantitation of interactions between PII protein and its receptors with unprecedented sensitivity and reveals transient interactions” (Scientific Reports, 2021).
Numbering of substitutions follows the chain as printed. Numbers in names are those of the source.

B1: PII-LgBiT (wild-type PII protein from Synechocystis sp. PCC6803 fused to Large BiT) (natural protein, UniProt Q55247 1-112, looked up)
chain: MKKVEAIIRPFKLDEVKIALVNAGIVGMTVSEVRGFGRQKGQTERYRGSEYTVEFLQKLKIEIVVDEGQVDMVVDKLVSAARTGEIGDGKIFISPVDSVVRIRTGEKDTEAI
notes: PII signalling protein, Synechocystis sp; PCC 6803; LgBiT is fused at the C-terminally located Strep-tag purification linker of PII; cloned in pASK-IBA3; also called PII (WT); source: E. coli Lemo21, purified (Strep-Tactin Superflow); not shown: Strep-tag, internal (between PII and LgBiT), kept; LgBiT, C-terminal, kept
B2: PII-S49E-LgBiT (phosphomimetic T-loop variant of PII fused to Large BiT) (natural protein, Synechocystis sp. PCC6803, UniProt Q55247 1-112, looked up)
chain: B1 chain with S49E
notes: PII signalling protein, Synechocystis sp; PCC 6803, variant S49E; Same fusion as m1 with S49E; also called S49E PII variant; source: E. coli Lemo21, purified (Strep-Tactin Superflow); not shown: Strep-tag, internal (between PII and LgBiT), kept; LgBiT, C-terminal, kept
B3: PII-I86N-LgBiT (PII variant I86N fused to Large BiT) (natural protein, Synechocystis sp. PCC6803, UniProt Q55247 1-112, looked up)
chain: B1 chain with I86N
notes: PII signalling protein, Synechocystis sp; PCC 6803, variant I86N; Same fusion as m1 with I86N; the text once words the change as 'IIe86 to Asp86'; source: E. coli Lemo21, purified (Strep-Tactin Superflow); not shown: Strep-tag, internal (between PII and LgBiT), kept; LgBiT, C-terminal, kept
B4: PII (as used in the Biolayer interferometry of ref. 17) (natural protein, UniProt Q55247 1-112, looked up)
chain: B1 chain
notes: PII signalling protein

Key:
[1] = target: T1, NAGK-SmBiT (N-acetyl-L-glutamate kinase fused to Small BiT) (Synechocystis sp. PCC 6803, UniProt P73326 1-297); assay: split reporter (BiFC, NanoBiT); in solution; NAGK-SmBiT titrated to 10 pM PII-LgBiT; 2 mM ADP and 2 mM NAG; 40 min at 30 °C; settings: both partners purified
T1 construct: N-acetyl-L-glutamate kinase (NAGK), Synechocystis sp; PCC 6803; Cloned into pTEV5 (NdeI, BamHI); source: E. coli Lemo21, purified (Ni-NTA HisTrap); not shown: SmBiT (after a 16 amino acids flexible linker), C-terminal, kept
T1 sequence (looked up): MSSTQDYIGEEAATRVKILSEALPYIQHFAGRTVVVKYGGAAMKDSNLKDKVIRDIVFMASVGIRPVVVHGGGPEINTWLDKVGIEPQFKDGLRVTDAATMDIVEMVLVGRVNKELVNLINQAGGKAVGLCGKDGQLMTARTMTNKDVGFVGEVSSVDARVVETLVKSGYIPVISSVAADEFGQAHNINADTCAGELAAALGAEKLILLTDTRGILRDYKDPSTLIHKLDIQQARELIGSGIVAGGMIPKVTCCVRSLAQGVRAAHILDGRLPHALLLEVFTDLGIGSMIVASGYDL

[2] = target: T1, NAGK-SmBiT (N-acetyl-L-glutamate kinase …); assay: split reporter (BiFC, NanoBiT); in solution; NAGK-SmBiT titrated to 10 pM PII-LgBiT; 2 mM ADP and 50 mM NAG; 40 min at 30 °C; settings: both partners purified
[3] = target: T1, NAGK-SmBiT (N-acetyl-L-glutamate kinase …); assay: split reporter (BiFC, NanoBiT); in solution; NAGK-SmBiT titrated to 10 pM PII-LgBiT; 2 mM ATP, 2 mM Arg and 50 mM NAG; 40 min at 30 °C; settings: both partners purified
[4] = target: T1, NAGK-SmBiT (N-acetyl-L-glutamate kinase …); assay: split reporter (BiFC, NanoBiT); in solution; NAGK-SmBiT titrated to 10 pM PII-LgBiT variant; 2 mM ATP and 2 mM NAG; 40 min at 30 °C; settings: both partners purified
[5] = target: T1, NAGK-SmBiT (N-acetyl-L-glutamate kinase …); assay: split reporter (BiFC, NanoBiT); in solution; NAGK-SmBiT (3-666 nM) titrated to 10 pM PII-LgBiT variant; 2 mM ATP and 2 mM arginine; 40 min at 30 °C; settings: both partners purified
[6] = target: T1, NAGK-SmBiT (N-acetyl-L-glutamate kinase …); assay: split reporter (BiFC, NanoBiT); in solution; NAGK-SmBiT titrated to 10 pM PII-LgBiT variant; no effector molecules; 40 min at 30 °C; apparent KD; settings: both partners purified
[7] = target: T1, NAGK-SmBiT (N-acetyl-L-glutamate kinase …); assay: split reporter (BiFC, NanoBiT); in solution; NAGK-SmBiT titrated to 10 pM PII-LgBiT variant; 2 mM ADP; 40 min at 30 °C; apparent KD; settings: both partners purified
[8] = target: T1, NAGK-SmBiT (N-acetyl-L-glutamate kinase …); assay: split reporter (BiFC, NanoBiT); in solution; NAGK-SmBiT titrated to 10 pM PII-LgBiT; 2 mM ATP, 2 mM Arg and 2 mM NAG; 40 min at 30 °C; settings: both partners purified
[9] = target: T1, NAGK-SmBiT (N-acetyl-L-glutamate kinase …); assay: split reporter (BiFC, NanoBiT); in solution; NAGK-SmBiT titrated to 10 pM PII-LgBiT variant; 2 mM ATP and 50 mM NAG; 40 min at 30 °C; settings: both partners purified
[10] = target: T1, NAGK-SmBiT (N-acetyl-L-glutamate kinase …); assay: split reporter (BiFC, NanoBiT); in solution; NAGK-SmBiT titrated to 10 pM PII-LgBiT variant; 2 mM ATP; 40 min at 30 °C; apparent KD; settings: both partners purified
[11] = target: T2, NAGK (as used in the Biolayer interferometry of ref. 17) (UniProt P73326 1-297); assay: BLI; binding curves of ref. 17 re-calculated here by curve fitting from association and dissociation kinetics (Octet data analysis HT software); apparent KD
T2 construct: N-acetyl-L-glutamate kinase
T2 sequence (looked up): T1 sequence (looked up)

| Binder | Kd [1] [nM] | Kd [2] [nM] | Kd [3] [nM] | Kd [4] [nM] | Kd [5] [nM] | Kd [6] [nM] | Kd [7] [nM] | Kd [8] [nM] | Kd [9] [nM] | Kd [10] [nM] | Kd [11] [nM] |
| --- | --- | --- | --- | --- | --- | --- | --- | --- | --- | --- | --- |
| B1 | 14.9 | 1.2 | 9.5 | 4.7 | 17.8 | 12.9 | 30.8 | 16.5 | 0.74 | 8.8 | – |
| B2 | – | – | – | 10.7 | 432 | 133 | 95.3 | – | 3.39 | 155 | – |
| B3 | – | – | – | 4.1 | 1.56 | 12.9 | 11.7 | – | 0.68 | 7 | – |
| B4 | – | – | – | – | – | – | – | – | – | – | 11.7 ± 0.005 |
